# Experimental data reported in patent US20130084293A1 (LA JOLLA INSTITUTE FOR ALLERGY AND IMMUNOLOGY, published 2013).
# B1: C-terminally hexahistidine-tagged mouse HRF (mHRF-His6) (ligand)
# chain: MIIYRDLISHDELFSDIYKIREIADGLCLEVEGKMVSRTEGAIDDSLIGGNASAEGPEGEGTESTVVTGVDIVMNHHLQETSFTKEAYKKYIKDYMKSLKGKLEEQKPERVKPFMTGAAEQIKHILANFNNYQFFIGENMNPDGMVALLDYREDGVTPFMIFFKDGLEMEKCHHHHHH
# notes: Expressed in E. coli BL21(DE3) from pET-24a(+)
# Biological target: the molecule itself
# Test: self-association: reducing and non-reducing SDS-PAGE and size exclusion chromatography of purified mHRF-His6
protein,measurement,value
B1,binding result,binds
